Legend:
IL-4R on HEK-Blue cells = IL-4R on HEK-Blue cells (human, UniProt P24394 26-825); test: cell-based or functional assay
Biotinylated IL-4R [1] = target: T1, Biotinylated IL-4R (human, UniProt P24394 26-232, limits assumed, biotinylated); test: competitive ELISA: IL-4 coated, biotinylated IL-4R preincubated with antibody (plate of PRO1898)
T1 construct: also called human IL-4R; hIL-4R

Biotinylated IL-4R [2] = target: T1, Biotinylated IL-4R; test: competitive ELISA: IL-4 coated, biotinylated IL-4R preincubated with antibody (plate of PRO1899)
Biotinylated IL-4R [3] = target: T1, Biotinylated IL-4R; test: competitive ELISA: human IL-4 coated on the plate, biotinylated IL-4R preincubated with the antagonist, bound IL-4R detected with streptavidin-HRP; blocked ligand human IL-4
Biotinylated IL-4R [4] = target: T1, Biotinylated IL-4R; test: as above; remark: listed apart in the source
Biotinylated IL-4R [5] = target: T1, Biotinylated IL-4R; test: as above; remark: listed apart in the source
Biotinylated IL-4R [6] = target: T1, Biotinylated IL-4R; test: as above; remark: listed apart in the source
Biotinylated IL-4R [7] = target: T1, Biotinylated IL-4R; test: competitive ELISA: human IL-4 coated on the plate, biotinylated IL-4R preincubated with the antagonist, bound IL-4R detected with streptavidin-HRP; blocked ligand human IL-4 [continued) E]

IC50, neutralization of hIL-4 induced signaling in reporter gene assay (IL-4R on HEK-Blue cells): 1.15 ng/mL | IC50, neutralization of hIL-13 induced signaling in reporter gene assay (IL-4R on HEK-Blue cells): 1 ng/mL | rel. IC50 (IC50, dupilumab/IC50, test sample), hIL-4 induced signaling (IL-4R on HEK-Blue cells): 1 ratio | rel. IC50 (IC50, dupilumab/IC50, test sample), hIL-13 induced signaling (IL-4R on HEK-Blue cells): 1 ratio | IC50 (Biotinylated IL-4R [1]): 6.78 ng/mL | rel. IC50 (IC50, dupilumab/IC50, test sample) (Biotinylated IL-4R [1]): 1 ratio | IC50 (Biotinylated IL-4R [2]): 6.18 ng/mL | rel. IC50 (IC50, dupilumab/IC50, test sample) (Biotinylated IL-4R [2]): 1 ratio | IC50 (read off the curve) (Biotinylated IL-4R [3]): ~2 ng/mL | IC50 (read off the curve) (Biotinylated IL-4R [4]): ~2 ng/mL | IC50 (read off the curve) (Biotinylated IL-4R [5]): ~2 ng/mL | IC50 (read off the curve) (Biotinylated IL-4R [6]): ~3 ng/mL | IC50 (read off the curve) (Biotinylated IL-4R [7]): ~2 ng/mL
B1: dupilumab (antibody, V domains shown)
VH: EVQLVESGGGLEQPGGSLRLSCAGSGFTFRDYAMTWVRQAPGKGLEWVSSISGSGGNTYYADSVKGRFTISRDNSKNTLYLQMNSLRAEDTAVYYCAKDRLSITIRPRYYGLDVWGQGTTVTVSS
VL: DIVMTQSPLSLPVTPGEPASISCRSSQSLLYSIGYNYLDWYLQKSGQSPQLLIYLGSNRASGVPDRFSGSGSGTDFTLKISRVEAEDVGFYYCMQALQTPYTFGQGTKLEIKR
